Experimental data reported in US20230381277A1, “HIGH AFFINITY IL-2 RECEPTOR AGONISTS AND IMMUNOSUPPRESSANTS TO ENHANCE IMMUNE TOLERANCE” (Selecta Biosciences, Inc., priority 2022, published 2023).

Tested on: Ovalbumin-specific OTII T cells
Assay: Example 5: adoptive transfer of ovalbumin-specific OTII T cells, antigen-specific Treg induction
Type: in vivo
Details: mice with adoptively transferred OTII T cells; starting level ~3%
Method: However, expansion of antigen-specific Treg can be more desirable than expansion of total Treg. The ability of ImmTOR plus antigen combined with IL-2 mutein to induce and/or expand antigen-specific Treg was evaluated. Ovalbumin-specific OTII T cells were adoptively transferred into mice prior to treatment with ovalbumin and ImmTOR and/or IL-2 mutein.

B1: ovalbumin (protein, UniProt P01012 2-386, looked up)
Ovalbumin: GSIGAASMEFCFDVFKELKVHHANENIFYCPIAIMSALAMVYLGAKDSTRTQINKVVRFDKLPGFGDSIEAQCGTSVNVHSSLRDILNQITKPNDVYSFSLASRLYAEERYPILPEYLQCVKELYRGGLEPINFQTAADQARELINSWVESQTNGIIRNVLQPSSVDSQTAMVLVNAIVFKGLWEKAFKDEDTQAMPFRVTEQESKPVQMMYQIGLFRVASMASEKMKILELPFASGTMSMLVLLPDEVSGLEQLESIINFEKLTEWTSSNVMEERKIKVYLPRMKMEEKYNLTSVLMAMGITDVFSSSANLSGISSAESLKISQAVHAAHAEINEAGREVVGSAEAGVDAASVSEEFRADHPFLFCIKHIATNAVLFFGRCVSP
percentage of Foxp3+ DTII cells: ~6%
